Values quoted from earlier work, collected in article PMC5580472.
Read-outs that look alike come from different tables or passages of the source.

Experiments:
[1] = biological target: TNF (Homo sapiens) (UniProt P01375)
[2] = biological target: TNF (Homo sapiens) (UniProt P01375); remark: listed apart in the source

Sequence of TNF (Homo sapiens) (P01375 77-233): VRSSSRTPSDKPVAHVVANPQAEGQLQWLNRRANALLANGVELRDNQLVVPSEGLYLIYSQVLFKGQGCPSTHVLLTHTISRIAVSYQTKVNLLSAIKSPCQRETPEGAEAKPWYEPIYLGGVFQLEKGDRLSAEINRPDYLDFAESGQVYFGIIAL
Sequence of CrmB (P0DSV7 23-349): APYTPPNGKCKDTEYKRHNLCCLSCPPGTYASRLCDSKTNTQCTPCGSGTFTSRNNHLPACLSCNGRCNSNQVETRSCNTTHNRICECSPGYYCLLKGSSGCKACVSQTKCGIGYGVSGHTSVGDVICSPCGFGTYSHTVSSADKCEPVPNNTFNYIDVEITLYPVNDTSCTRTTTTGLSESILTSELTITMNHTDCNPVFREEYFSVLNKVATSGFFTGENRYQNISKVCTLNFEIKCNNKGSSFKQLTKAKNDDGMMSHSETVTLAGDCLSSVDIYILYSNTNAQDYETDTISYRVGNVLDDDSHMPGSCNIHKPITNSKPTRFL
Sequence of TNF receptor 2 (P20333 23-461): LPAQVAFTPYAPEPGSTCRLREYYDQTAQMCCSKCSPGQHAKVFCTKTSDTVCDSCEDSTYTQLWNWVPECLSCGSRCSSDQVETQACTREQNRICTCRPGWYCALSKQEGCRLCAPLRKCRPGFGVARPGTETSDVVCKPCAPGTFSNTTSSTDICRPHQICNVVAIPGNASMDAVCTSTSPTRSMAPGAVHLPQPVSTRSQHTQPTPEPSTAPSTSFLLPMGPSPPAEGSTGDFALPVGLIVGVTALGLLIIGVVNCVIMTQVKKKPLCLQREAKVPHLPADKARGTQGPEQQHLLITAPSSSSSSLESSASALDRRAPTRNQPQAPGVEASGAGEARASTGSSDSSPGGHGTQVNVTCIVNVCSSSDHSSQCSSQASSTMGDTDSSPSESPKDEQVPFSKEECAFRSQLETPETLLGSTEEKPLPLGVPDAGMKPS

Row | Substance | Kd [1] [nM] | Kd [2] [nM]
1 | CrmB (from UniProt P0DSV7) | 0.28 | 
2 | TNF receptor 2 (from UniProt P20333) |  | 0.3
